US20030113774A1

Tests used:
[1] = target: pGal4-AD-p53-1 (p53 clone 1 from the mouse embryonic cDNA library, fused to Gal4-AD) (mouse) (UniProt P02340); assay: yeast two-hybrid, quantitative liquid β-galactosidase assay
[2] = target: pGal4-AD-p53-2 (p53 clone 2 from the mouse embryonic cDNA library, fused to Gal4-AD) (mouse) (UniProt P02340); assay: as above
[3] = target: pGal4-AD-SV40 (control plasmid, SV40 protein fused to Gal4-AD) (UniProt P03070); assay: yeast two-hybrid, quantitative liquid β-galactosidase assay (positive control pair)
UniProt P03070, sequence (P03070 84-708): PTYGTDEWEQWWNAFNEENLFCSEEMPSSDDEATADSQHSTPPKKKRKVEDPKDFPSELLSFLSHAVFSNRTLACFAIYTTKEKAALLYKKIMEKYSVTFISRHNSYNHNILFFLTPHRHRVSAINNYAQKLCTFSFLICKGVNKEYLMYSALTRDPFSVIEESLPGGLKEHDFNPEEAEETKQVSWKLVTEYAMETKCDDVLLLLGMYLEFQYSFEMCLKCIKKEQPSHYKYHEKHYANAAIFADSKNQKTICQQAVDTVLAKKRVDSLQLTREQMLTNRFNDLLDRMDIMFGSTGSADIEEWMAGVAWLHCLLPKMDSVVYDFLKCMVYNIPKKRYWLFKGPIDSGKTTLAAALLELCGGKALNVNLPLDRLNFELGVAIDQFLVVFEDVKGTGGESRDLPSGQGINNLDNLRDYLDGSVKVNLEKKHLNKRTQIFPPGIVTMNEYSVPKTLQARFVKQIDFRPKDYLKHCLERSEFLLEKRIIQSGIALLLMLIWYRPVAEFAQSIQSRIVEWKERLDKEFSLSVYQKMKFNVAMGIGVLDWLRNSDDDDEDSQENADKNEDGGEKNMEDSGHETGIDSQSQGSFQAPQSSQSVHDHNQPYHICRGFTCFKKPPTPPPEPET

β-galactosidase [1] [nmol/min/mg]	β-galactosidase [2] [nmol/min/mg]	Substance	β-galactosidase [3] [nmol/min/mg]
33.6	31.8	pGal4-BD-p40 bait fusion protein comprised of the Gal4 binding domain and a p40 protein (from UniProt P04386 1-147)	–
–	–	pGal4-BD-p53 (control plasmid, p53 fused to the Gal4 binding domain) (from UniProt P04386 1-147)	65.3
